# Data taken from publication PMC10499821.
# Legend:
# [1] = molecular target: FITC-PRDM14_(197–213) (human); experiment: fluorescence polarisation
# [2] = molecular target: Nsp3 Ubl1 (SARS-CoV-2) (UniProt P0DTD1); experiment: fluorescence polarisation
Substance,fold reduction of affinity against wild-type Nsp3 SUD-M [1] [fold],fold lower affinity than NCOA2 (1074–1089) [2] [fold]
"Nsp3 SUD-M A1397E, V1453K, S1478D (from UniProt P0DTD1 819-2763) (domain or fragment)",100,–
Y to V mutant of the NCOA2_(1074–1089) peptide (from UniProt Q15596 1074-1089),–,20
